Experimental findings from US20180201658A1 (MIT, published 2018) are described below.

Experiment [1] deals with T1, human Bcl-2 (human, UniProt P10415 1-217, limits assumed).
T1 construct: Also used for the human Bcl-2 overexpressed in Bcl-2/Myc 2924 cells in the functional rows
The experiment can be described thus: fluorescence anisotropy (FIG. 1).

A further experiment has as its target T2, human Bfl-1 (human, UniProt Q16548 1-151, limits assumed).
T2 construct: Also used for the Bfl-1 of Pfeiffer cells in the functional rows
T2 sequence (looked up): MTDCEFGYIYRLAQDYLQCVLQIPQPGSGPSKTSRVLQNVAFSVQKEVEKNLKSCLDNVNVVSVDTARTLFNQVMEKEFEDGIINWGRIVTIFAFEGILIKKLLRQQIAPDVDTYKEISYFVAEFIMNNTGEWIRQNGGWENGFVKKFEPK
In words: fluorescence anisotropy (FIG. 1).

The next experiment deals with T3, human Bcl-w (human, UniProt Q92843 1-164, limits assumed).
T3 sequence (looked up): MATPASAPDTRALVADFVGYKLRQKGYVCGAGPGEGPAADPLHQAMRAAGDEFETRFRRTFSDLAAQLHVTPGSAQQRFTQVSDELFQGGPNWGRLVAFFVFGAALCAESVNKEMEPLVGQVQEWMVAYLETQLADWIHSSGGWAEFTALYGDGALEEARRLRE
In words: fluorescence anisotropy (FIG. 1). (In general: Fluorescence polarisation rises when a labelled molecule tumbles more slowly, as on binding a larger partner.)

In experiment [2] the target is T4, human Bcl-xL (human, UniProt Q07817 1-209).
T4 construct: Also used for the Bcl-xL of MDA-MB-231 cells in the functional rows
T4 sequence (Q07817 1-209): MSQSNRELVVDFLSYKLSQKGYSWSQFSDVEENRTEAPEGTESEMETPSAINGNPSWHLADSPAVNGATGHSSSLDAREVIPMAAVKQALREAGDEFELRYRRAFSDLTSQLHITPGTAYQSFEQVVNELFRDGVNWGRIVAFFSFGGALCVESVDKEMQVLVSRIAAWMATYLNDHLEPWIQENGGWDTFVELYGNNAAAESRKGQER
In words: fluorescence anisotropy (FIG. 1).

Experiment [3] concerns the target T1, human Bcl-2. In words: cell-based or functional assay.
For experiment [4], the target named is T4, human Bcl-xL. The experiment can be described thus: cell-based or functional assay.
In a further experiment the target is murine Mcl-1 (murine, UniProt P97287 1-331, limits assumed). The experiment can be described thus: cell-based or functional assay.
murine Mcl-1, sequence (P97287 whole entry): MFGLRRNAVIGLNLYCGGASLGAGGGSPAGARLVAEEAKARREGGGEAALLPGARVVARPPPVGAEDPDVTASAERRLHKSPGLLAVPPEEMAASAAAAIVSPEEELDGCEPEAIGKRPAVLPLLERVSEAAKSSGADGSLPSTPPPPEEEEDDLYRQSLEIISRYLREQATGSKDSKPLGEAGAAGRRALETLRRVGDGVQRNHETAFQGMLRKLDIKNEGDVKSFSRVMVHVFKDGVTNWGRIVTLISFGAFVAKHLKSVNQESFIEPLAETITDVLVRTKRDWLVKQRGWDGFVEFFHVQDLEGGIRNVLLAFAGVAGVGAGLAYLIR

T1 sequence (P10415 1-217 limits assumed): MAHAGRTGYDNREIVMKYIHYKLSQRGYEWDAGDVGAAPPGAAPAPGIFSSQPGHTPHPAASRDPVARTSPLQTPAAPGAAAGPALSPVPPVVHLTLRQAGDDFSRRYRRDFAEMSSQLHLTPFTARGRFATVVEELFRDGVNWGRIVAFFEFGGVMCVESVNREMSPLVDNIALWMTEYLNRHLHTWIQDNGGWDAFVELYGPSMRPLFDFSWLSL

For the molecule RPEIWITQELRRIGDEFNAYYAR (Bim BH3 point mutant) [Bim_A2eT], the “fold reduction in binding relative to Bim” value is more than 20 fold with human Bcl-2 [1], more than 20 fold with human Bfl-1, more than 20 fold in the experiment with human Bcl-w and 6 fold with human Bcl-xL [2].
As to RPEIWMTQELRRIGDEFNAYYAR [Bim_A2eT_I2dM], the “fold reduction in binding relative to Bim_A2eT” value with human Bcl-2 [1], in the experiment with human Bfl-1, with human Bcl-w and with human Bcl-xL [2] was approximately 4 fold each time.
With RPEIWITQELRRLGDEFNAYYAR [Bim_A2eT_I3dL], the “fold reduction in binding relative to Bim_A2eT” value with human Bfl-1 was found to be 4 fold.
Turning to RPEIWITQELRRIGDEINAYYAR [Bim_A2eT_F4aI], the “fold decrease in binding relative to Bim_A2eT” value is 3 fold in the experiment with human Bcl-2 [1] and 6 fold with human Bcl-xL [2].
For the molecule AELPPEFAAQLRKIGDKVYC [NoxaA BH3 peptide from murine Noxa, unlabeled], the “EC50 of mitochondrial depolarization, BH3 profiling, Bcl-2-dependent line” value with human Bcl-2 [3] is more than 100 µM. Further, the “EC50 of mitochondrial depolarization, BH3 profiling, MDA-MB-231 cells” value with human Bcl-xL [4] is more than 100 µM.
Regarding RPEIWLTQHLQRLGDEINAYYAR [MS3 as used in BH3 profiling], the “EC50 of mitochondrial depolarization, BH3 profiling, Bcl-2-dependent line” value with human Bcl-2 [3] was more than 100 µM. The “EC50 of mitochondrial depolarization, BH3 profiling, Mcl-1/Myc 2640 cells” value in the experiment with murine Mcl-1 came to 0.86 µM. Also, the “EC50 of mitochondrial depolarization, BH3 profiling, MDA-MB-231 cells” value with human Bcl-xL [4] was more than 100 µM.
For RPEIWMTQGLRRLGDEINAYYAR [MS1, unlabeled], in the experiment with murine Mcl-1, the “EC50 of mitochondrial depolarization, BH3 profiling, Mcl-1/Myc 2640 cells” value is 0.07 µM.
